According to publication PMC9482650, “Quantitative fragmentomics allow affinity mapping of interactomes” (Nature Communications, 2022):

Experiments:
Assay in all cases: holdup assay
Parameters in all cases: key: below the threshold = too weak to quantify, mostly under pKd 3.1 to 4
CARD11, Q9BXL7 = molecular target: T1, CARD11, Q9BXL7
T1 sequence (Q9BXL7 662-765, limits assumed, looked up): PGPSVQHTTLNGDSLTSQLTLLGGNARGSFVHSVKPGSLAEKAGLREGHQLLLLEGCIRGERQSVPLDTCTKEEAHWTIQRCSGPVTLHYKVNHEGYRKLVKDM

DFNB31_2, Q9P202 = molecular target: T2, DFNB31_2, Q9P202
T2 sequence (Q9P202 274-371, limits assumed, looked up): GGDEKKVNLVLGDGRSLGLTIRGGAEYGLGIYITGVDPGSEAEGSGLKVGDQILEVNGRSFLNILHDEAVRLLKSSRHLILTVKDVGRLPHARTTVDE

DLG1_1, Q12959 = molecular target: DLG1_1, Q12959
FRMPD1, Q5SYB0 = molecular target: T3, FRMPD1, Q5SYB0
T3 sequence (Q5SYB0 52-145, limits assumed, looked up): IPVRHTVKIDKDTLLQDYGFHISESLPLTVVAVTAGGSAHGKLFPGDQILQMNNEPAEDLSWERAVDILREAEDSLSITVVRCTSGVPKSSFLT

FRMPD2_3, Q68DX3 = molecular target: FRMPD2_3, Q68DX3
FRMPD2_3, Q68DX3, sequence (Q68DX3 1073-1166): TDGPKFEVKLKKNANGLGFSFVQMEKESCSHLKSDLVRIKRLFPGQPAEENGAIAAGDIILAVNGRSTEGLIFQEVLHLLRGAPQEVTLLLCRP

GORASP1, Q9BQQ3 = molecular target: GORASP1, Q9BQQ3
GORASP1, Q9BQQ3, sequence (Q9BQQ3 1-208): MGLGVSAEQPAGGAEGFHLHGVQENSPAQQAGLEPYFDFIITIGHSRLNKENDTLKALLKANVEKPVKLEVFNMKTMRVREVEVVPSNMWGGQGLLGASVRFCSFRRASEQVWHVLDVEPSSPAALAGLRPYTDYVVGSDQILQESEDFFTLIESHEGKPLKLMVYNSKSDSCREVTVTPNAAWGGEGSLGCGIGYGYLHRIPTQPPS

GRASP, Q7Z6J2 = molecular target: GRASP, Q7Z6J2
GRASP, Q7Z6J2, sequence (Q7Z6J2 96-193): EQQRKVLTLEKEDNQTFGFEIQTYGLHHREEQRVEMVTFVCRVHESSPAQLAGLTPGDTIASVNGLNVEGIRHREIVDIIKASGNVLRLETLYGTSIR

GRIP2_3, Q9C0E4 = molecular target: GRIP2_3, Q9C0E4
GRIP2_3, Q9C0E4, sequence (Q9C0E4 238-339): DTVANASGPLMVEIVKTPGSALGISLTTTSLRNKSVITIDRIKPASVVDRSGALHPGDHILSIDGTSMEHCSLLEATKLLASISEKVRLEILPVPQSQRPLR

IL16_1, Q14005 = molecular target: IL16_1, Q14005
IL16_1, Q14005, sequence (Q14005 210-306): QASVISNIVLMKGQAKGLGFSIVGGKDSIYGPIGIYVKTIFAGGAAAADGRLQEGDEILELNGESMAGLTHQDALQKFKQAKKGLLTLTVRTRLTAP

Inadl_2, Q8NI35 = molecular target: Inadl_2, Q8NI35
Inadl_2, Q8NI35, sequence (Q8NI35 238-335): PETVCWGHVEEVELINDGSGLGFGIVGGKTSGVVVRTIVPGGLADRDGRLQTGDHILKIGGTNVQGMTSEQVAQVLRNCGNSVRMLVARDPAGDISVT

LAP2, Q96RT1 = molecular target: LAP2, Q96RT1
LAP2, Q96RT1, sequence (Q96RT1 other isoform, or with tags, fused parts or gaps): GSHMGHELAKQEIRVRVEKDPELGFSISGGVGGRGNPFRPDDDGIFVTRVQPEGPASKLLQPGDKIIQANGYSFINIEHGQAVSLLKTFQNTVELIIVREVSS

LIN7A, O14910 = molecular target: T4, LIN7A, O14910
T4 sequence (O14910 103-200, limits assumed, looked up): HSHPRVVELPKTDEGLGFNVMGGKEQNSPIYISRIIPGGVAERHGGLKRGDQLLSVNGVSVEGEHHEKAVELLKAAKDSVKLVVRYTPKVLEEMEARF

LNX1_1, Q8TBB1 = molecular target: LNX1_1, Q8TBB1
LNX1_1, Q8TBB1, sequence (Q8TBB1 261-371): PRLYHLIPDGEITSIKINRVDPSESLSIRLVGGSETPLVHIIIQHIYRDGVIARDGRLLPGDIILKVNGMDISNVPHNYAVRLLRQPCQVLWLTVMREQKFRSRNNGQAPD

MAGI1_2, Q96QZ7 = molecular target: MAGI1_2, Q96QZ7
MAGI1_2, Q96QZ7, sequence (Q96QZ7 456-580): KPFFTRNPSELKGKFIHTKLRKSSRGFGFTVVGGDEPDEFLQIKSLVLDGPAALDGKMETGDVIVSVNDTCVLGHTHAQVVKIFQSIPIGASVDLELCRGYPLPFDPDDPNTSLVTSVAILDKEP

MAGI2_6, Q86UL8 = molecular target: MAGI2_6, Q86UL8
MAGI2_6, Q86UL8, sequence (Q86UL8 1141-1229): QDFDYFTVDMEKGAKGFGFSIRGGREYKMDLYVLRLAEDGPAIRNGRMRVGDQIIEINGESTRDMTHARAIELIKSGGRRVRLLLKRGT

MAGI3_2, Q5TCQ9 = molecular target: MAGI3_2, Q5TCQ9
MAGI3_2, Q5TCQ9, sequence (Q5TCQ9 398-503): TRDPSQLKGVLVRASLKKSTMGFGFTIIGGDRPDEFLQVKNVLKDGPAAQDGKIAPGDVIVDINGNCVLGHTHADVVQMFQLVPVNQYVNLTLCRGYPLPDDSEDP

MPP2, Q14168 = molecular target: T5, MPP2, Q14168
T5 sequence (Q14168 180-250, limits assumed, looked up): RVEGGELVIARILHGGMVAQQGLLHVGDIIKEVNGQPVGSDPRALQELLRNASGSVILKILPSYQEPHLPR

MPP7, Q5T2T1 = molecular target: T6, MPP7, Q5T2T1
T6 sequence (Q5T2T1 134-230, limits assumed, looked up): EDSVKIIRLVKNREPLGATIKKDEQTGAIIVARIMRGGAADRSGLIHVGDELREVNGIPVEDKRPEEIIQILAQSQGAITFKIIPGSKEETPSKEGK

NHERF4_2, Q86UT5 = molecular target: NHERF4_2, Q86UT5
NHERF4_2, Q86UT5, sequence (Q86UT5 220-308): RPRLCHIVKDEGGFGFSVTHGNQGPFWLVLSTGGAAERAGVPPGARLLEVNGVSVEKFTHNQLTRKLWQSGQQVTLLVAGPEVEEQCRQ

PCLO, Q9Y6V0 = molecular target: T7, PCLO, Q9Y6V0
T7 sequence (Q9Y6V0 4491-4600, limits assumed, looked up): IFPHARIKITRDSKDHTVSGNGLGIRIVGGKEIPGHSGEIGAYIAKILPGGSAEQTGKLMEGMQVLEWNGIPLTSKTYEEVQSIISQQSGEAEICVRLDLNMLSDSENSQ

PICK1, Q9NRD5 = molecular target: PICK1, Q9NRD5
PICK1, Q9NRD5, sequence (Q9NRD5 17-115): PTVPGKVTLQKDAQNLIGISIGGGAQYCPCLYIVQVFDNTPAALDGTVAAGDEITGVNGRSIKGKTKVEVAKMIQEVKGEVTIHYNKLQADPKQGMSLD

RADIL, Q96JH8 = molecular target: T8, RADIL, Q96JH8
T8 sequence (Q96JH8 971-1071, limits assumed, looked up): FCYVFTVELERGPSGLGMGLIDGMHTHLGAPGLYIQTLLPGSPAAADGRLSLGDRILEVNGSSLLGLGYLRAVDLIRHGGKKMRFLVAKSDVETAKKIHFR

RAPGEF6, Q8TEU7 = molecular target: T9, RAPGEF6, Q8TEU7
T9 sequence (Q8TEU7 525-625, limits assumed, looked up): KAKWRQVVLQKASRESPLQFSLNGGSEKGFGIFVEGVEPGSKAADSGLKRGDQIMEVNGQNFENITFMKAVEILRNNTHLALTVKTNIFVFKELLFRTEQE

SCRIB_1, Q14160 = molecular target: SCRIB_1, Q14160
SCRIB_1, Q14160, sequence (Q14160 718-814): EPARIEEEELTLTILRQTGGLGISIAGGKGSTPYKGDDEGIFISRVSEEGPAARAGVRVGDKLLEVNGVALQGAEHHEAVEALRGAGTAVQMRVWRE

SNTG2, Q9NY99 = molecular target: T10, SNTG2, Q9NY99
T10 sequence (Q9NY99 68-166, limits assumed, looked up): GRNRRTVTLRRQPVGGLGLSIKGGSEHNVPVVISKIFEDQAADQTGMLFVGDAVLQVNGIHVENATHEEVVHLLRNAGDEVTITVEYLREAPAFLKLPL

SYNJ2BP, P57105 = molecular target: T11, SYNJ2BP, P57105
T11 sequence (P57105 8-110, limits assumed, looked up): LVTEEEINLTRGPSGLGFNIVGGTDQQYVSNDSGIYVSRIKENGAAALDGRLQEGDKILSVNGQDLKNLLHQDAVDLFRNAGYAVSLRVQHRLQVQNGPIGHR

TJP2_1, Q9UDY2 = molecular target: TJP2_1, Q9UDY2
TJP2_1, Q9UDY2, sequence (Q9UDY2 24-128): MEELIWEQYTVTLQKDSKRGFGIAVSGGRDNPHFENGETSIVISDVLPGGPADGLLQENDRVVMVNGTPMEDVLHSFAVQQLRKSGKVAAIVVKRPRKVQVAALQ

[1] = plain residues with an end cap or a label only (N-terminal biotin on a linker: ahx)
[2] = plain residues with an end cap or a label only (N-terminal biotin on a linker: ttds)

## PKMKLNETSF [SHKBP1, Q8TBC3]
CARD11, Q9BXL7; [1]
  pKd: below the threshold
DFNB31_2, Q9P202; [1]
  pKd: below the threshold
DLG1_1, Q12959; [1]
  pKd: below the threshold
FRMPD1, Q5SYB0; [1]
  pKd: below the threshold
FRMPD2_3, Q68DX3; [1]
  pKd: below the threshold
GORASP1, Q9BQQ3; [1]
  pKd: below the threshold
GRASP, Q7Z6J2; [1]
  pKd: 3.88
GRIP2_3, Q9C0E4; [1]
  pKd: below the threshold
IL16_1, Q14005; [1]
  pKd: below the threshold
Inadl_2, Q8NI35; [1]
  pKd: below the threshold
LAP2, Q96RT1; [1]
  pKd: below the threshold
LIN7A, O14910; [1]
  pKd: below the threshold
LNX1_1, Q8TBB1; [1]
  pKd: below the threshold
MAGI1_2, Q96QZ7; [1]
  pKd: below the threshold
MAGI2_6, Q86UL8; [1]
  pKd: 3.54
MAGI3_2, Q5TCQ9; [1]
  pKd: below the threshold
MPP2, Q14168; [1]
  pKd: below the threshold
MPP7, Q5T2T1; [1]
  pKd: below the threshold
NHERF4_2, Q86UT5; [1]
  pKd: below the threshold
PCLO, Q9Y6V0; [1]
  pKd: below the threshold
PICK1, Q9NRD5; [1]
  pKd: below the threshold
RADIL, Q96JH8; [1]
  pKd: below the threshold
RAPGEF6, Q8TEU7; [1]
  pKd: below the threshold
SCRIB_1, Q14160; [1]
  pKd: 4.31
SNTG2, Q9NY99; [1]
  pKd: below the threshold
SYNJ2BP, P57105; [1]
  pKd: below the threshold
TJP2_1, Q9UDY2; [1]
  pKd: below the threshold

## YNSFLSVTTV [PDZRN3, Q9UPQ7]
CARD11, Q9BXL7; [1]
  pKd: below the threshold
DFNB31_2, Q9P202; [1]
  pKd: below the threshold
DLG1_1, Q12959; [1]
  pKd: 3.81
FRMPD1, Q5SYB0; [1]
  pKd: below the threshold
FRMPD2_3, Q68DX3; [1]
  pKd: below the threshold
GORASP1, Q9BQQ3; [1]
  pKd: 3.8
GRASP, Q7Z6J2; [1]
  pKd: 4.15
GRIP2_3, Q9C0E4; [1]
  pKd: below the threshold
IL16_1, Q14005; [1]
  pKd: below the threshold
Inadl_2, Q8NI35; [1]
  pKd: below the threshold
LAP2, Q96RT1; [1]
  pKd: below the threshold
LIN7A, O14910; [1]
  pKd: below the threshold
LNX1_1, Q8TBB1; [1]
  pKd: 3.8
MAGI1_2, Q96QZ7; [1]
  pKd: 3.99
MAGI2_6, Q86UL8; [1]
  pKd: 3.6
MAGI3_2, Q5TCQ9; [1]
  pKd: 4.27
MPP2, Q14168; [1]
  pKd: below the threshold
MPP7, Q5T2T1; [1]
  pKd: below the threshold
NHERF4_2, Q86UT5; [1]
  pKd: below the threshold
PCLO, Q9Y6V0; [1]
  pKd: below the threshold
PICK1, Q9NRD5; [1]
  pKd: below the threshold
RADIL, Q96JH8; [1]
  pKd: 4.2
RAPGEF6, Q8TEU7; [1]
  pKd: below the threshold
SCRIB_1, Q14160; [1]
  pKd: 3.62
SNTG2, Q9NY99; [1]
  pKd: 3.81
SYNJ2BP, P57105; [1]
  pKd: below the threshold
TJP2_1, Q9UDY2; [1]
  pKd: below the threshold

## SHSSKGETAV [FZD7, O75084]
CARD11, Q9BXL7; [2]
  pKd: 3.67
DFNB31_2, Q9P202; [2]
  pKd: below the threshold
DLG1_1, Q12959; [2]
  pKd: 4.72
FRMPD1, Q5SYB0; [2]
  pKd: 3.6
FRMPD2_3, Q68DX3; [2]
  pKd: 3.46
GORASP1, Q9BQQ3; [2]
  pKd: 3.48
GRASP, Q7Z6J2; [2]
  pKd: 3.45
GRIP2_3, Q9C0E4; [2]
  pKd: 3.55
IL16_1, Q14005; [2]
  pKd: 3.66
Inadl_2, Q8NI35; [2]
  pKd: below the threshold
LAP2, Q96RT1; [2]
  pKd: 4.04
LIN7A, O14910; [2]
  pKd: below the threshold
LNX1_1, Q8TBB1; [2]
  pKd: below the threshold
MAGI1_2, Q96QZ7; [2]
  pKd: 3.9
MAGI2_6, Q86UL8; [2]
  pKd: 4.43
MAGI3_2, Q5TCQ9; [2]
  pKd: 4.93
MPP2, Q14168; [2]
  pKd: below the threshold
MPP7, Q5T2T1; [2]
  pKd: below the threshold
NHERF4_2, Q86UT5; [2]
  pKd: below the threshold
PCLO, Q9Y6V0; [2]
  pKd: below the threshold
PICK1, Q9NRD5; [2]
  pKd: below the threshold
RADIL, Q96JH8; [2]
  pKd: below the threshold
RAPGEF6, Q8TEU7; [2]
  pKd: below the threshold
SCRIB_1, Q14160; [2]
  pKd: 4.11
SNTG2, Q9NY99; [2]
  pKd: below the threshold
SYNJ2BP, P57105; [2]
  pKd: 5.08
TJP2_1, Q9UDY2; [2]
  pKd: below the threshold
